Assay results reported in PMC6075865.

Biological target: preformed binary t-SNARE complex of Syx 1a (amino acids 1-262) and SNAP25 (amino acids 1-206), O35526
Test: SDS-resistant SNARE complex formation (SDS-PAGE without boiling, Coomassie staining); t-SNAREs preformed 1 hr (syntaxin 1 3 uM, SNAP25 15 uM), peptide (50 uM) or none added for 30 min, then GST-SybII (3 uM); 25 C; 100 mM NaCl, 1 mM DTT, 1 mM EDTA, 0.5% Triton X-100, 20 mM Tris pH 7.4; time …
Settings: other: SDS-resistant SNARE complex formation (SDS-PAGE without boiling, Coomassie staining)

Sequence of preformed binary t-SNARE complex of Syx 1a (amino acids 1-262) and SNAP25 (amino acids 1-206), O35526 (O35526 whole entry, looked up, the tested form may be a part, one chain of several): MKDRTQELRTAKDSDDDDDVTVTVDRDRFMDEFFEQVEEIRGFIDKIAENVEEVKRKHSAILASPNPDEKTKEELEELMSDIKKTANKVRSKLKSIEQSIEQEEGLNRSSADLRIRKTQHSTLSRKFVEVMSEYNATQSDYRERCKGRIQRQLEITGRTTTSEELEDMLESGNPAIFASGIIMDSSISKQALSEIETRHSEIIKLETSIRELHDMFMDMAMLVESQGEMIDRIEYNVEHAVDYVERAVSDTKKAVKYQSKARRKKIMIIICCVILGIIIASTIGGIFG

Row | Protein | amount of assembled SNARE complexes (m10 with m11) after 240 min with 50 uM peptide, % of control | rate of SNARE complex assembly (m10 with m11) with 50 uM peptide, % of control
1 | IPAGCGDEEEEEEESILDTVLKYLPGPLQDMFKK [CpxII CTD peptide (amino acids 101-134), in solution] | CTD-peptide 92.3 ± 9.1 | 51.4 ± 3.8% of control
2 | KVPYELGGQLPELKTSDPIEGEDEDELFMKEIAC [scrambled variant of the CpxII CTD peptide, in solution] | scr-peptide 88.8 ± 9.6 | 106.6 ± 16.7% of control
